The values below come from patent US7579150B1, “Mobile RNA acts as a signal to regulate plant growth and development” (Iowa State University Research Foundation, Inc., priority 2004, dated 2009).

The assay deals with StBEL-05. The experiment in a line: Yeast two-hybrid interaction of POTH1 deletion constructs with StBEL-05. It is filed as cell-based, potato. Particulars: yeast strain AH109. An excerpt:
The Matchmaker two-hybrid system (Clontech, CA) was used for the yeast two-hybrid screen. Yeast transformation and plasmid rescue into DH5-a E. coli cells were according to the manufacturer's instructions. Full-length POTH1 was cloned into the pBridge (Clontech, CA) vector and used as bait to screen the potato (S. tuberosum ‘Desireé’) stolon cDNA library in pAD-GAL4-2.1 (Stratagene, Calif.). Positive interactions were confirmed by cotransforming yeast strain AH109 with each purified pAD plasmid and pBridge: POTH1 and plating on -leucine/-tryptophan (transformation control) and -leucine/-tryptophan/-histidine/-adenine (selection) nutrient medium. Induction of the AH109 reporter gene, lacZ, was measured with a yeast β-galactosidase assay kit (Pierce Chemicals). β-galactosidase activity (FIG. 9B) was determined from a known density of yeast cells and calculated as 1000×OD420/time of color reaction (minutes)×volume of yeast culture (ml)×OD600.
The StBEL-05 deletion constructs were amplified by PCR, then cloned into the vector, pGAD, in-frame with the GAL4 activation domain. POTH1 deletion constructs were amplified by PCR, and cloned into pBridge (Clontech) in-frame with the GAL4 binding domain. Sequencing of selected cDNAs and constructs was performed at the Iowa State University DNA Facility. […]

Chain of StBEL-05 (as listed by the source): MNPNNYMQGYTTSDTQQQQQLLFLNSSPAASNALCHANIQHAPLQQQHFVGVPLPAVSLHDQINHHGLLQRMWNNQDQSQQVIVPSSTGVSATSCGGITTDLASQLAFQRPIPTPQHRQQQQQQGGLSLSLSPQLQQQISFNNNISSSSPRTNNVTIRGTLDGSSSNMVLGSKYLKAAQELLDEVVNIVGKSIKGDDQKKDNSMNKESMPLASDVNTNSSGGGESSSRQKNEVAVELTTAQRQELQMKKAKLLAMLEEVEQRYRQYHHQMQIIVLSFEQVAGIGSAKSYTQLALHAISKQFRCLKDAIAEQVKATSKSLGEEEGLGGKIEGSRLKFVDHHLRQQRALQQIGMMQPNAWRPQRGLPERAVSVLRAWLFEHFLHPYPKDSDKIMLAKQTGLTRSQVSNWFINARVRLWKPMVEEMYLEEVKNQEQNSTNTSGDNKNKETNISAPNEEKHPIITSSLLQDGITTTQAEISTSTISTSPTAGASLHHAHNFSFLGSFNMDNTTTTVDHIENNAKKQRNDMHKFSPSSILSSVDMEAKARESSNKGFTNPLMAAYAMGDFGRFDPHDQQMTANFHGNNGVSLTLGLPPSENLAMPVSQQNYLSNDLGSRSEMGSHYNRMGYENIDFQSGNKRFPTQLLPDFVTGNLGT

B1: pBHD-9: POTH1 construct: first amino-terminal 114 aa, no KNOX domain sequence; transcriptional activator alone (protein)
chain: MKLLSSIEQACDICRLKKLKCSKEKPKCAKCLKNNWECRYSPKTKRSPLTRAHLTEVESRLERLEQLFLLIFPREDLDMILKMDSLQDIKALLTGLFVQDNVNKDAVTDRLASVETDMPLTLRQHRISATSSSEESSNKGQRQLTVSMDDEMYGFHSTRDDYADKALMSPENLMMQTEYNNFHNYTNSSILTSNPMMFGSDDIQLSSEQTNSFSTMTLQNNDNIYQIRSGNCGGGSGSGGSSKDHNDNNNNNEDYDEDGSN
Turning to B1, the “interaction with StBEL-05” value is reported as “Interaction with StBEL-05 was observed”.
